Reference: US20240200091A1, “USE OF PROTOPORPHYRINOGEN OXIDASE” (BEIJING DABEINONG BIOTECHNOLOGY CO., LTD., priority 2021, published 2024)

B1: PPO6B: nucleotide sequence encoding protoporphyrinogen oxidase PPO6, maize common codon usage bias (nucleic acid)
DNA: ATGTCAAGTCCCAACGGGAAGTACCTTATGCTGTATAGCACGACTGATGGACACACCAAGACAATAATGGACACCATGGCGAAGCACATTATGGAAGAGGCCAAAGTTCAGTGCGACGTCGTAGACATGAGGGACGGGGACAAGTATGAACTTGCGGCTTACGAGAAGGTCATGCTCGGCGCCTCCATAAGGTACGGCTTCTTCAGCCGCACCTTGCATACATATACTACCCATCATGTTGATGAGCTTAACTCCATGCCATCGGCATTCTTTGGTGTTAATTTAACGGCGCGGAAAACTAGCAAGAACACAGCCATGACCAATGCTTATACACGGAAATTCCTGGATCAATCTATGTGGGTGCCACAGCTGAGTGGGGTCTTCGCCGGTGCACTCTGGTACCCCCGCTACAACTTTTTTGATCGAGTGATGATCCAGTTCATCATGAAGGTGACGGGCGGCGAAACAAATACTACAAAAGAGATCGTCTACACGGACTGGGATGCAGTGCACAAGTTTGCTACTGACTTCGTCCAACTCCCTGCCACCGCCATTCCAAGATCTAAACCTGCTACGTCGGTGCCGCCGGCGTCAGTAGCAAACTATGATAATGGTGCTCGTGTTGCGCTGGTGGTGGTTGGAATTTCTGCAGCCATCATCTTCGGCCGCAGGCTAATTTTGGCCAAGAGATTTTGA
modifications: The nucleotide sequence of PPO6B
B2: PPO12B: nucleotide sequence encoding protoporphyrinogen oxidase PPO12, maize common codon usage bias (nucleic acid)
DNA: ATGAAGAAGGCGCTGTTTTTATATTCAAGTCGTGAGGGCCAAACAAAAAAAATATTGAACTACATTGAAGGTGAATTGTCCAATTTTGAGTGCGAGCTCGTCGACCTCCACACGCTGGACGCCATTGATTTCTCGGTCTATGACAGGGTTTTGATTGGAGCAAGCATACGGTACGGCCACCTAAACAAGAAACTTTATCAATTCATTGAGAATAACCGCCAGCAGCTGGAAAATCATACCAAGGTGGCCTTCTTCTGTGTAAATCTTACTGCAAGGAAGGAAGATCAAGGCAAGGACACCCCTGAAGGGAGCGTCTACATCCAGAAGTTCCTGAAAAAATCTCCCTGGCAGCCAAAACTTATCGGGGTGTTCGCTGGCGCGCTCTACTACCCGAGATATGGTTTTTTTGACAAGATGATGATCAAGCTCATCATGACGCTGACAGATGGAGAGACTGATACTACAAAGGAGGTGGAGTACACCAACTGGAAGAAAGTTTCCCTCTTCGCCAAGAAGTTTGCTGAGCTTTGA
modifications: The nucleotide sequence of PPO12B
B3: PPO1B: nucleotide sequence encoding protoporphyrinogen oxidase PPO1, maize common codon usage bias (nucleic acid)
DNA: ATGAAAGCGTTGGTTCTTTACAGTACAAGAGATGGTCAGACCCACGCCATTGCGAGCTATATCGCAAACTGCATGAAGGAGAAGTATGAATGTGACGTCATTGATCTCTTGCACGCGCAGCATGTCACCCTTAGCCGCTACGACAAGGTCCTTGTTGGGGCATCGATACGCTATGGCCATTTCAACGCCGTGCTGGACAAATTTGTTAAGCAGAATATACAACAGCTGAACTCCATGCCTTCTGCATTCTTCGCGGTAAATCTGACCGCTCGTAAGCCAGAAAAAAGGACACCACAAACAAATTCATACGTCAGAAAGTTCCTCCTAGGAACGCCGTGGAAGCCCGCCATGTGCGGTGTTTTTGCTGGCGCCTTGCGATACCCTCGGTATCGGTGGGTGGACAAGGTGATGATCCAATTAATCATGAGGATGACGGGGGGCGAGACTGATACTTCTAAAGAAGTGGAGTACACTGATTGGGAGCAGGTGAAAAAATTTGCTGAGGACTTCGGAAAGCTCTCCTACAAGAAGACGCTGTGA
modifications: The nucleotide sequence of PPO1B

How the values were obtained:
Type in all cases: in vivo
transgenic maize plants [1] = assay: flumioxazin tolerance of transgenic maize plants (spray, grade of pesticide damage); details: for The grade of pesticide damage/plant: number of plants of grade 0 / The grade of pesticide damage/plant: number of plants of grade 1 / The grade of pesticide damage/plant: number of plants of grade 2 / The grade of pesticide damage/plant: number of plants of grade 3: 7 DAT, 16 maize plants per genotype; for tolerance to flumioxazin: maize, flumioxazin at different concentrations (120 and 240 g ai/ha)
transgenic maize plants [2] = assay: oxyfluorfen tolerance of transgenic maize plants (spray, grade of pesticide damage); details: for tolerance to oxyfluorfen: maize; for The grade of pesticide damage/plant: number of plants of grade 0 / The grade of pesticide damage/plant: number of plants of grade 1 / The grade of pesticide damage/plant: number of plants of grade 2 / The grade of pesticide damage/plant: number of plants of grade 3: 7 DAT, 16 maize plants per genotype
transgenic maize plants [3] = assay: saflufenacil tolerance of transgenic maize plants (spray, grade of pesticide damage); details: for tolerance to saflufenacil: maize; for The grade of pesticide damage/plant: number of plants of grade 0 / The grade of pesticide damage/plant: number of plants of grade 1 / The grade of pesticide damage/plant: number of plants of grade 2 / The grade of pesticide damage/plant: number of plants of grade 3: 7 DAT, 16 maize plants per genotype
[4] = flumioxazin 120 g ai/ha (2x field concentration)
[5] = flumioxazin 240 g ai/ha (4x field concentration)
[6] = oxyfluorfen at four-fold field concentration (720 g ai/ha)
[7] = oxyfluorfen at two-fold field concentration (360 g ai/ha)
[8] = oxyfluorfen 360 g ai/ha (2x field concentration)
[9] = oxyfluorfen 720 g ai/ha (4x field concentration)
[10] = saflufenacil at four-fold field concentration (100 g ai/ha)
[11] = saflufenacil at two-fold field concentration (50 g ai/ha)
[12] = saflufenacil 50 g ai/ha (2x field concentration)
[13] = saflufenacil 100 g ai/ha (4x field concentration)

Molecule | The grade of pesticide damage/plant: number of plants of grade 0 (transgenic maize plants [1]; [4]) | The grade of pesticide damage/plant: number of plants of grade 1 (transgenic maize plants [1]; [4]) | The grade of pesticide damage/plant: number of plants of grade 2 (transgenic maize plants [1]; [4]) | The grade of pesticide damage/plant: number of plants of grade 3 (transgenic maize plants [1]; [4]) | The grade of pesticide damage/plant: number of plants of grade 0 (transgenic maize plants [1]; [5]) | The grade of pesticide damage/plant: number of plants of grade 1 (transgenic maize plants [1]; [5]) | The grade of pesticide damage/plant: number of plants of grade 2 (transgenic maize plants [1]; [5]) | The grade of pesticide damage/plant: number of plants of grade 3 (transgenic maize plants [1]; [5]) | tolerance to flumioxazin (transgenic maize plants [1]) | tolerance to oxyfluorfen (transgenic maize plants [2]; [6]) | tolerance to oxyfluorfen (transgenic maize plants [2]; [7]) | The grade of pesticide damage/plant: number of plants of grade 0 (transgenic maize plants [2]; [8]) | The grade of pesticide damage/plant: number of plants of grade 1 (transgenic maize plants [2]; [8]) | The grade of pesticide damage/plant: number of plants of grade 2 (transgenic maize plants [2]; [8]) | The grade of pesticide damage/plant: number of plants of grade 3 (transgenic maize plants [2]; [8]) | The grade of pesticide damage/plant: number of plants of grade 0 (transgenic maize plants [2]; [9]) | The grade of pesticide damage/plant: number of plants of grade 1 (transgenic maize plants [2]; [9]) | The grade of pesticide damage/plant: number of plants of grade 2 (transgenic maize plants [2]; [9]) | The grade of pesticide damage/plant: number of plants of grade 3 (transgenic maize plants [2]; [9]) | tolerance to saflufenacil (transgenic maize plants [3]; [10]) | also measured
B1 | 16 | 0 | 0 | 0 | 16 | 0 | 0 | 0 | high-resistant tolerance | high-resistant tolerance | high-resistant tolerance | 16 | 0 | 0 | 0 | 16 | 0 | 0 | 0 | high-resistant tolerance | tolerance to saflufenacil (transgenic maize plants [3]; [11]): high-resistant tolerance; The grade of pesticide damage/plant: number of plants of grade 0 (transgenic maize plants [3]; [12]): 16; The grade of pesticide damage/plant: number of plants of grade 1 (transgenic maize plants [3]; [12]): 0; The grade of pesticide damage/plant: number of plants of grade 2 (transgenic maize plants [3]; [12]): 0; The grade of pesticide damage/plant: number of plants of grade 3 (transgenic maize plants [3]; [12]): 0; The grade of pesticide damage/plant: number of plants of grade 0 (transgenic maize plants [3]; [13]): 16; The grade of pesticide damage/plant: number of plants of grade 1 (transgenic maize plants [3]; [13]): 0; The grade of pesticide damage/plant: number of plants of grade 2 (transgenic maize plants [3]; [13]): 0; The grade of pesticide damage/plant: number of plants of grade 3 (transgenic maize plants [3]; [13]): 0
B2 | 16 | 0 | 0 | 0 | 16 | 0 | 0 | 0 | high-resistant tolerance | high-resistant tolerance | high-resistant tolerance | 16 | 0 | 0 | 0 | 16 | 0 | 0 | 0 | high-resistant tolerance | tolerance to saflufenacil (transgenic maize plants [3]; [11]): high-resistant tolerance; The grade of pesticide damage/plant: number of plants of grade 0 (transgenic maize plants [3]; [12]): 16; The grade of pesticide damage/plant: number of plants of grade 1 (transgenic maize plants [3]; [12]): 0; The grade of pesticide damage/plant: number of plants of grade 2 (transgenic maize plants [3]; [12]): 0; The grade of pesticide damage/plant: number of plants of grade 3 (transgenic maize plants [3]; [12]): 0; The grade of pesticide damage/plant: number of plants of grade 0 (transgenic maize plants [3]; [13]): 16; The grade of pesticide damage/plant: number of plants of grade 1 (transgenic maize plants [3]; [13]): 0; The grade of pesticide damage/plant: number of plants of grade 2 (transgenic maize plants [3]; [13]): 0; The grade of pesticide damage/plant: number of plants of grade 3 (transgenic maize plants [3]; [13]): 0
B3 | 16 | 0 | 0 | 0 | 16 | 0 | 0 | 0 | high-resistant tolerance | high-resistant tolerance | high-resistant tolerance | 16 | 0 | 0 | 0 | 16 | 0 | 0 | 0 | high-resistant tolerance | tolerance to saflufenacil (transgenic maize plants [3]; [11]): high-resistant tolerance; The grade of pesticide damage/plant: number of plants of grade 0 (transgenic maize plants [3]; [12]): 16; The grade of pesticide damage/plant: number of plants of grade 1 (transgenic maize plants [3]; [12]): 0; The grade of pesticide damage/plant: number of plants of grade 2 (transgenic maize plants [3]; [12]): 0; The grade of pesticide damage/plant: number of plants of grade 3 (transgenic maize plants [3]; [12]): 0; The grade of pesticide damage/plant: number of plants of grade 0 (transgenic maize plants [3]; [13]): 16; The grade of pesticide damage/plant: number of plants of grade 1 (transgenic maize plants [3]; [13]): 0; The grade of pesticide damage/plant: number of plants of grade 2 (transgenic maize plants [3]; [13]): 0; The grade of pesticide damage/plant: number of plants of grade 3 (transgenic maize plants [3]; [13]): 0
